According to the supplement of paper PMC10724198:
± gives the standard deviation of the averaged measurements.

What was measured:
[1] = system: Saccharomyces cerevisiae; assay: protein stability index of tFT-peptide fusion (C-terminal peptide) (PSI (0-1 scale)); higher = more stable (slower turnover)
Description: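 MPS profiling in S. cerevisiae of the tFT-X12 degron library: putative degron peptides plus stable controls, 12 aa, fused to the C-terminus of a sfGFP-mCherry timer. Cells are FACS-sorted into 8 mCherry/sfGFP bins and deep-sequenced. PSI runs from 0 (unstable) to 1 (stable). Backgrounds are wild type, das1Δ and doa10Δ at 30 °C, and wild type, das1Δ, cdc34-1 and cdc53-1 at 37 °C; 2-3 technical replicates each.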

[2] = system: Saccharomyces cerevisiae; assay: as above; conditions: genetic background: wild type; temperature: 30 C
[3] = genetic background: cdc34-1, temperature: 37 C
[4] = genetic background: cdc53-1, temperature: 37 C
[5] = genetic background: das1 deletion, temperature: 30 C
[6] = genetic background: das1 deletion, temperature: 37 C
[7] = genetic background: doa10 deletion, temperature: 30 C
[8] = genetic background: wild type, temperature: 30 C
[9] = genetic background: wild type, temperature: 37 C
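Further: PSI is a weighted mean of sequencing reads over stability bins, variants kept only with over 10 reads, mCherry proximal and sfGFP distal, peptide attached via GGGS linker.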

Row | Sequence | protein stability index [1, 3] | protein stability index [1, 4] | protein stability index [1, 5] | protein stability index [1, 6] | protein stability index [1, 7] | protein stability index [1, 8] | protein stability index [1, 9] | protein stability index [2]
1 | LWERRSRQLTMF | 0.645 ± 0.056 | 0.7649 ± 0.003 | 0.687 ± 0.014 | 0.7401 ± 0.0057 | 0.173 ± 0.011 | 0.166 ± 0.018 | 0.33 ± 0.026 | 0.263 ± 0.013
2 | LWGLVGVCLVLC | 0.0679 ± 0.011 | 0.0705 ± 0.004 | 0.176 ± 0.021 | 0.229 ± 0.0061 | 0.135 ± 0.0079 | 0.113 ± 0.016 | 0.134 ± 0.011 | 0.169 ± 0.0084
3 | LWVMVLFFPGCS | 0.3714 ± 0.0026 | 0.493 ± 0.0033 | 0.307 ± 0.042 | 0.552 ± 0.024 | 0.299 ± 0.0056 | 0.326 ± 0.025 | 0.5361 ± 0.0032 | 0.463 ± 0.043
4 | LWVSHFVILIVS | 0.122 ± 0.032 | 0.105 ± 0.0073 | 0.135 ± 0.03 | 0.236 ± 0.0048 | 0.0934 ± 0.036 | 0.108 ± 0.026 | 0.16 ± 0.0095 | 0.213 ± 0.03
5 | LYRSLLLSFCVL | 0.593 ± 0.023 | 0.6381 ± 0.00019 | 0.528 ± 0.011 | 0.639 ± 0.018 | 0.407 ± 0.031 | 0.411 ± 0.022 | 0.521 ± 0.012 | 0.483 ± 0.0052
6 | LYSLRRNWLRTP | 0.637 ± 0.032 | 0.726 ± 0.016 | 0.672 ± 0.016 | 0.772 ± 0.0095 | 0.1676 ± 0.0011 | 0.21 ± 0.026 | 0.478 ± 0.019 | 0.323 ± 0.04
7 | MALAVRVVPCGA | 0.373 ± 0.012 | 0.385 ± 0.011 | 0.291 ± 0.028 | 0.4637 ± 0.0008 | 0.264 ± 0.011 | 0.287 ± 0.037 | 0.421 ± 0.0078 | 0.397 ± 0.017
8 | MALAVRVVSCGA | 0.294 ± 0.015 | 0.3333 ± 0.0024 | 0.265 ± 0.032 | 0.4146 ± 0.0036 | 0.2244 ± 0.00017 | 0.262 ± 0.016 | 0.3802 ± 0.0015 | 0.3657 ± 0.0028
9 | MCVCLLVRVVPS | 0.188 ± 0.0053 | 0.3241 ± 0.00049 | 0.211 ± 0.029 | 0.41 ± 0.01 | 0.175 ± 0.0074 | 0.194 ± 0.022 | 0.357 ± 0.0044 | 0.297 ± 0.044
10 | MGDFGFIFVFFL | 0.544 ± 0.007 | 0.606 ± 0.035 | 0.427 ± 0.027 | 0.6479 ± 0.0044 | 0.383 ± 0.0084 | 0.414 ± 0.008 | 0.59233 ± 0.00044 | 0.502 ± 0.02
11 | MVVSLVLCFWAS | 0.248 ± 0.026 | 0.331 ± 0.069 | 0.257 ± 0.024 | 0.409 ± 0.016 | 0.222 ± 0.0091 | 0.244 ± 0.018 | 0.414 ± 0.055 | 0.255 ± 0.045
12 | MWRWASKCRFSM | 0.668 ± 0.025 | 0.706 ± 0.015 | 0.634 ± 0.015 | 0.759 ± 0.0097 | 0.231 ± 0.012 | 0.245 ± 0.022 | 0.515 ± 0.047 | 0.367 ± 0.011
13 | NFSALECKVQLT | 0.747 ± 0.076 | 0.727 ± 0.018 | 0.625 ± 0.018 | 0.725 ± 0.017 | 0.647 ± 0.042 | 0.653 ± 0.026 | 0.689 ± 0.0082 | 0.75 ± 0.052
14 | NFTDMGRSLYIN | 0.592 ± 0.056 | 0.788 ± 0.018 | 0.663 ± 0.015 | 0.775 ± 0.0087 | 0.166 ± 0.0031 | 0.208 ± 0.054 | 0.434 ± 0.024 | 0.279 ± 0.057
15 | NHKNANAATLIN | 0.645 ± 0.053 | 0.7192 ± 0.0061 | 0.641 ± 0.036 | 0.7266 ± 0.0038 | 0.268 ± 0.016 | 0.352 ± 0.038 | 0.6016 ± 0.0051 | 0.4548 ± 0.0018
16 | NVVIGLHLLVYI | 0.205 ± 0.021 | 0.313 ± 0.041 | 0.212 ± 0.047 | 0.419 ± 0.017 | 0.189 ± 0.022 | 0.227 ± 0.014 | 0.388 ± 0.018 | 0.326 ± 0.049
17 | NYVVFVRGIKIT | 0.585 ± 0.039 | 0.609 ± 0.02 | 0.533 ± 0.026 | 0.633 ± 0.011 | 0.104 ± 0.0022 | 0.114 ± 0.016 | 0.177 ± 0.016 | 0.186 ± 0.1
18 | PCVLAIYVWIRS | 0.0479 ± 0.016 | 0.169 ± 0.019 | 0.154 ± 0.037 | 0.2704 ± 0.0022 | 0.083 ± 0.016 | 0.107 ± 0.016 | 0.173 ± 0.011 | 0.163 ± 0.054
19 | PDRSTILHISGF | 0.721 ± 0.021 | 0.7606 ± 0.001 | 0.642 ± 0.034 | 0.744 ± 0.022 | 0.644 ± 0.037 | 0.633 ± 0.0087 | 0.728 ± 0.023 | 0.699 ± 0.019
20 | PETSRFALNEWG | 0.709 ± 0.04 | 0.748 ± 0.018 | 0.665 ± 0.0095 | 0.755 ± 0.0086 | 0.674 ± 0.043 | 0.68 ± 0.02 | 0.717 ± 0.011 | 0.727 ± 0.059
21 | PFFFSFILVLFW | 0.172 ± 0.0087 | 0.172 ± 0.036 | 0.219 ± 0.0092 | 0.286 ± 0.034 | 0.2355 ± 0.0021 | 0.186 ± 0.035 | 0.244 ± 0.02 | 0.264 ± 0.028
22 | PFFHVFLLLLLI | 0.153 ± 0.011 | 0.1359 ± 0.00032 | 0.188 ± 0.022 | 0.258 ± 0.0067 | 0.313 ± 0.021 | 0.154 ± 0.017 | 0.213 ± 0.0042 | 0.195 ± 0.0064
23 | PIKIYGYLTTVV | 0.597 ± 0.024 | 0.644 ± 0.023 | 0.517 ± 0.032 | 0.653 ± 0.02 | 0.474 ± 0.032 | 0.475 ± 0.02 | 0.6337 ± 0.0023 | 0.523 ± 0.045
24 | PISLYFVWFFFF | 0.242 ± 0.0081 | 0.363 ± 0.033 | 0.251 ± 0.024 | 0.369 ± 0.04 | 0.15 ± 0.011 | 0.147 ± 0.0072 | 0.269 ± 0.015 | 0.195 ± 0.074
25 | PLFPLLGLLFFF | 0.595 ± 0.029 | 0.6147 ± 0.0041 | 0.513 ± 0.032 | 0.592 ± 0.02 | 0.472 ± 0.032 | 0.496 ± 0.039 | 0.558 ± 0.018 | 0.461 ± 0.046
26 | PPGLLPPCLLVV | 0.358 ± 0.027 | 0.373 ± 0.0093 | 0.307 ± 0.035 | 0.444 ± 0.02 | 0.2485 ± 0.00054 | 0.301 ± 0.028 | 0.395 ± 0.011 | 0.39 ± 0.05
27 | PPLPPVCPSPSL | 0.665 ± 0.031 | 0.74 ± 0.027 | 0.658 ± 0.0035 | 0.7274 ± 0.0068 | 0.667 ± 0.023 | 0.685 ± 0.028 | 0.714 ± 0.004 | 0.485 ± 0.0061
28 | PPPNSSTSPPCS | 0.6572 ± 0.003 | 0.725 ± 0.017 | 0.661 ± 0.036 | 0.683 ± 0.011 | 0.681 ± 0.029 | 0.687 ± 0.0096 | 0.677 ± 0.013 | 0.196 ± 0.015
29 | PPRRCFPLLLFF | 0.44 ± 0.094 | 0.4471 ± 0.0019 | 0.445 ± 0.022 | 0.546 ± 0.01 | 0.208 ± 0.0085 | 0.209 ± 0.014 | 0.331 ± 0.012 | 0.235 ± 0.036
30 | PPSPVPPIWYLA | 0.636 ± 0.037 | 0.7595 ± 0.0041 | 0.707 ± 0.017 | 0.753 ± 0.029 | 0.233 ± 0.0083 | 0.261 ± 0.045 | 0.417 ± 0.019 | 0.372 ± 0.0055
